Consider four molecules from US20120329707A1 (INDIANA UNIVERSITY RESEARCH AND TECHNOLOGY, published 2012).

Numbered stars: 1 amine (or outer) side, 2 acyl side, 3 side chain; on linkers, the order of the positions; unused ones are H or OH. Square brackets hold non-standard residues; d marks the D form. Primed or numbered codes have the meaning given here. Side chains are listed from the residue outwards. Ends that are not written are not given here. * marks the point of attachment. 40K‑TE PEG = 40 kDa PEG covalently bound via thioether, formed by reaction of the free thiol of the peptide (Cys side chain) with an iodoacetic-functionalized PEG; 40K‑TE PEG″ = 40 kDa PEG bound to Cys via thioether made from an iodoacetyl-functionalised PEG; γGlu = O=C(O)[C@H](CCC(=O)[*:2])N[*:1]; Palmitoyl = CCCCCCCCCCCCCCCC(=O)*; Aib = CC(C)(N)C(=O)O

Among the targets are glucagon receptor; GLP-1 receptor; GIP receptor.
What all share (test): cell-based or functional assay

B1: peptide of SEQ ID NO: 36 (peptide)
peptide: H[Aib]QGTFTSDK([γGlu-Palmitoyl])SKYLD[Aib]RAAQDFVQWLKDGRG-NH2
modifications: N-terminus assumed
SMILES: CCCCCCCCCCCCCCCC(=O)N[C@@H](CCC(=O)NCCCC[C@H](NC(=O)[C@H](CC(=O)O)NC(=O)[C@H](CO)NC(=O)[C@@H](NC(=O)[C@H](Cc1ccccc1)NC(=O)[C@@H](NC(=O)CNC(=O)[C@H](CCC(N)=O)NC(=O)C(C)(C)NC(=O)[C@@H](N)Cc1c[nH]cn1)[C@@H](C)O)[C@@H](C)O)C(=O)N[C@@H](CO)C(=O)N[C@@H](CCCCN)C(=O)N[C@@H](Cc1ccc(O)cc1)C(=O)N[C@@H](CC(C)C)C(=O)N[C@@H](CC(=O)O)C(=O)NC(C)(C)C(=O)N[C@@H](CCCNC(=N)N)C(=O)N[C@@H](C)C(=O)N[C@@H](C)C(=O)N[C@@H](CCC(N)=O)C(=O)N[C@@H](CC(=O)O)C(=O)N[C@@H](Cc1ccccc1)C(=O)N[C@H](C(=O)N[C@@H](CCC(N)=O)C(=O)N[C@@H](Cc1c[nH]c2ccccc12)C(=O)N[C@@H](CC(C)C)C(=O)N[C@@H](CCCCN)C(=O)N[C@@H](CC(=O)O)C(=O)NCC(=O)N[C@@H](CCCNC(=N)N)C(=O)NCC(N)=O)C(C)C)C(=O)O
With B1, the “EC50 (nM) at glucagon receptor” value in the test with glucagon receptor was determined as 0.028 nM. In the test with GLP-1 receptor, the “EC50 (nM) at GLP-1 receptor” value came to 0.003 nM. The “EC50 (nM) at GIP receptor” value in the test with GIP receptor is 0.47 nM.

B2: peptide of SEQ ID NO: 37 (peptide)
peptide: H[Aib]QGTFTSDK([γGlu-γGlu-Palmitoyl])SKYLD[Aib]RAAQDFVQWLMKTK[dE]-OH
On to B2, for which the “EC50 (nM) at glucagon receptor” value with glucagon receptor is 0.018 nM. Further, the “EC50 (nM) at GLP-1 receptor” value with GLP-1 receptor is 0.016 nM. The “EC50 (nM) at GIP receptor” value with GIP receptor turned out to be 3.3 nM.

B3: peptide of SEQ ID NO: 15 (peptide)
peptide: H[Aib]QGTFTSDYSKYLDEKRA[Aib]EFVC(40K‑TE PEG)WLMDT-NH2
For the molecule B3, the “EC50 (nM) at glucagon receptor” value with glucagon receptor is 1.1 nM. In addition, the “EC50 (nM) at GLP-1 receptor” value in the test with GLP-1 receptor is 0.071 nM. In the test with GIP receptor, the “EC50 (nM) at GIP receptor” value was determined as 316 nM.

B4: peptide of SEQ ID NO: 35 (peptide)
peptide: H[Aib]QGTFTSDYSKYLDERRA[Aib]EFVC(40K‑TE PEG″)WLLDGGPSSGAPPPS-NH2
As to B4, the “EC50 (nM) at glucagon receptor” value with glucagon receptor stood at 1.18 nM. The “EC50 (nM) at GLP-1 receptor” value in the test with GLP-1 receptor turned out to be 0.085 nM. Further, in the test with GIP receptor, the “EC50 (nM) at GIP receptor” value came to 16.1 nM.
